Data from paper PMC13344149, “One-step purification of a bioactive PAK1-derived peptide” (Analytical biochemistry, 2025).

Assays:
[1] = target: the molecule itself; test: LC-MS; LC-MS of the heat-treated PBD46 sample; major species at 10.23 kDa
[2] = target: T1, Cdc42 labelled with the extrinsic fluorophore sNBD (UniProt P60953 1-191, sNBD fluorophore (site not stated)); test: other fluorescence titration; Cdc42 labelled with the extrinsic fluorophore sNBD, PBD46 titrated; heat-purified and conventional PBD46 compared; conditions: both partners purified
T1 construct: Cdc42, small GTPase; also called sNBD-labeled Cdc42
T1 sequence (P60953 whole entry): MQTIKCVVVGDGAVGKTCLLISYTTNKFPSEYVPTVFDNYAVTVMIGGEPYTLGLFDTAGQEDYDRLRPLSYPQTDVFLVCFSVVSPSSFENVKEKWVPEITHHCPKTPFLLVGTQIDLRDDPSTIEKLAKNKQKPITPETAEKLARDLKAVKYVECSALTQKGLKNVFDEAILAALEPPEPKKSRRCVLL

B1: PBD46, 46-residue peptide from PAK1 (PAK1 CRIB domain, residues 67-112) (peptide, UniProt Q13153 67-112, looked up)
chain: KKEKERPEISLPSDFEHTIHVGFDAVTGEFTGMPEQWARLLQTSNI
notes: The heat-purified and the conventionally purified sample are the same construct from the same host; also called PAK1-derived peptide; heat-purified PBD46; source: E. coli, as GST-PBD46
In the case of B1, the “stoichiometry N” value [1] is reported as 2 and the Kd [2] is reported as ~83 nM.
